What was measured:
RBP4 = RBP4 (UniProt P02753); details: cited from earlier work
[1] = molecular target: Recombinant mouse RBP4 with 6XHis Tag (mouse) (UniProt Q00724); assay: SPR; mouse RBP4 amine-coupled to a CM5 chip (target 1,200 RU), Biacore S200; peptides as analytes, 0.8-26.6 uM; running buffer PBST (0.05% Tween20); 25 C; contact 120 s, dissociation 300 s; Kd from the site-specific binding fit Y=(Bmax*X)/(Kd+X)

Row | Kd [1] [µM] | Substance | Kd (RBP4) [µM]
1 | – | STRA6 (from UniProt Q9BX79) | 22.4
2 | 21.3 | mouse RBPR2-L296S mutant peptide (from UniProt Q9DBN1 280-321) | –
3 | 89.3 | mouse RBPR2-S294A mutant peptide (from UniProt Q9DBN1 280-321) | –
4 | 34.9 | mouse RBPR2-Y295P mutant peptide (from UniProt Q9DBN1 280-321) | –

From article PMC9992173, “Mapping of the extracellular RBP4 ligand binding domain on the RBPR2 receptor for Vitamin A transport” (Frontiers in Cell and Developmental Biology, 2023)
